A short description of the data set: label from the status in PepcDB records.

The results in this text go back to a protein production outcome set (Wang et al. 2014).

In the case of “MSNDVDLIKRLGPSAMDQIMLYLAFSAMRTSGHRHGAFLDAAATAAKCAIYMTYLEQGQNLRMTGHLHHLEPKRVKAIVEEVRQALTEGKLLKMLGSQEPRYLIQFPYVWMEKYPWRPGRSRIPGTSLTSEEKRQIEQKLPSNLPDAHLITSFEFLELIEFLHKRSQEDLPKEHQMPLSEALAEHIKRRLLYSGTVTRIDSPWGMPFYALTRPFYAPADDQERTYIMVEDTARFFRMMRDWAEKRPNTMRVLEELDILPEKMQQAKDELDEIIRAWADKYHQDDGVPVVLQMVFGKKED”, the protein production entry was “not failed”.
On to “MSNEDSLPPFTLFGLDDVENYGLVTEADNSLPLDIHNQVFQLVEKGNQSFKESRFEEAISSYSKANSIKPLDPIVLGNRSAAYIRFGQYLKQRSASISEYKPLNGFDMSMLGELALKDADKLMSLQSSLVKSYITKACALMLLERYEVARDTILSGLQIDPFSGPLRSNLQELEKVMPNSMRKTHGMAERSDDFDCTVCLKLLYEPATTPCGHTFCRSCLFQSMDRGNKCPLCRTVIFMTPRTCAVSVTLNNIIEKNFPEEYAERKSEQDTLVHLGNESMPLFVMDVIIPCQKLSLHIFEPRYRLMVRRIMEGNHRMGMVALDSATGSPVDVACEVEITECDPLPDGRFVLELESHRRCRIVKAWDQDGYRVAEVEWVKDIPPQSEQGKADLRELTTSAASFARSWLDRAKEAARQGDRRRLEILLNVESMIPTPQDPERFSFWLATLTDRRPSERLELLRLQDTGEVLDYRLVQIARQISLFHQSLSFDC”, for which the protein production result is “failed”.
In the case of “MSNEFEPYNKEIKKIEFTTWKYQASKDAEHSPSDEEELINELEVVKQEAFQKGYADGFQQAQEEINAIKAELSKWLDLIQKPVQILDEQLTQEIIQTIIWLSQHCVAVELSVNPDKLNDLLNKIKGELPSLTGKKSISMHPDDVRWIKEVFSESNIPGLHELLVADPALNRGDFYLQGEHSELDGRIQTRFTTLFNEYINKENIIP” it was “failed”; in that of “MSNEHKASIDGGQWAQCVRERGWLWDVAQGVEVQSAPTLILAHGAGAPMDSGFMNDIAVRLAGHGVNVLRFEFPYMAQRRLDGGKRPPNPAPRLLECWREVHALVRPYVTGVLALGGKSMGGRMASLLADELQADALVCLGYPFYAAGKPEKPRVAHLADLSVPSLIVQGERDALGNRQAVEAYTLAPGIELYWLTAADHDLKPLKASGFSHEQHLESAALKVAAFLKALS”, “failed”; in that of “MSNELPAVICLVGPTGAGKTAAALHLAERFAGTVINADSRQVYRDFPIITAQPTAEEQAQCPHRLYGFLETEARMSAGVWGDHATAAIDEALAQGRLPLLVGGTGMYVRALLDGIAAIPAIPRDIHVRWQERCAAEGPQRLHAMLCDIDAEYAARIHPNDRQRVTRALEVHEHTGRTFSEWHRSAMPAPRYRALRIGFAATLDALTPRLAHRIDLMLAAGALDEARRARVHCDDPSAPGWSGIGCAETYAHLVGSLDYEAMRHVWLHNTRAYAKRQLTWFRADTRLTWYAPDDVEGIALGVASFLRGGA”, “failed”.
The same measure for “MSNHSSSIPELSDNGIRYYQTYNESLSLWPVRCKSFYISTRFGQTHVIASGPEDAPPLVLLHGALFSSTMWYPNIADWSSKYRTYAVDIIGDKNKSIPENVSGTRTDYANWLLDVFDNLGIEKSHMIGLSLGGLHTMNFLLRMPERVKSAAILSPAETFLPFHHDFYKYALGLTASNGVETFLNWMMNDQNVLHPIFVKQFKAGVMWQDGSRNPNPNADGFPYVFTDEELRSARVPILLLLGEHEVIYDPHSALHRASSFVPDIEAEVIKNAGHVLSMEQPTYVNERVMRFFNA”: “not failed”.
In the case of “MSNIDFDKYRILLVNSYFQSRNAKITRFWNRATTNAKDIFHGIRTRKEFFSKIIRDFQTEFGEDFIEYLAGGELIGGITNILPIYENKMGVMERSGHIIHKKSGYHLTPDILSEYLINDVFFDNTFLKHNIEELAKADNGVHILDILNSLLKVKDDREIYREATEKLLEMLNCLESDNEQKKRRIRAGIVVYYGFGNLNLVTAAIGEFWTDYGILDDGIDLQALGIFLGDISKLYEARICMERANEIFKNNGDKIGIATSLHNLGIILHLQGNYEEAMNKYNQSLKIDEELGERHRISMSLRFLGRIEYDKGNYDDAVKLYNQSLMIAEKLGDQSGIAKLLGELGIVLLHQGNYDEAIKLYNQSLMIAEKLGDQSGIAGTLYELGKVYLIQDNYGESIEVQKRSLKIKELLGDKYGIAHSLHALGVTHEVKKEYTFALLNYLEASSIYKELNSPYSKDVSKLITDLRDKMGNEQFNKACKEFGYVPPDNI” it was “failed”.
